Converted amounts (≈) assume the structure as drawn.
Assays:
[1] = system: Prevotella intermedia NB88001; experiment: MIC against anaerobic bacteria; assay type: cell-based; conditions: read-out: minimal inhibitory concentration (MIC)
[2] = system: Peptostreptococcus anaerobius NB97001; experiment: MIC against anaerobic bacteria; assay type: cell-based; conditions: read-out: minimal inhibitory concentration (MIC)
[3] = system: Propionibacterium acnes NB99001; experiment: MIC against anaerobic bacteria; assay type: cell-based; conditions: Cutibacterium acnes, read-out: minimal inhibitory concentration (MIC)
[4] = system: Eubacterium lentum NB94001; experiment: MIC against anaerobic bacteria; assay type: cell-based; conditions: read-out: minimal inhibitory concentration (MIC)
[5] = system: Bacteroides fragilis NB85001; experiment: MIC against anaerobic bacteria; assay type: cell-based; conditions: read-out: minimal inhibitory concentration (MIC)
[6] = system: Listeria monocytogenes (7644); experiment: BacTiter-Glo bacterial ATP content viability assay
Bacillus Subtilis (6633) = experiment: BacTiter-Glo bacterial ATP content viability assay; conditions: for B. subtilis viability by ATP-coupled luminescence assay: FIG. 12, full length protein
[7] = system: Enterococcus faecalis (29212); experiment: BacTiter-Glo bacterial ATP content viability assay; conditions: for E. faecals viability by ATP-coupled luminescence assay: FIG. 12, full length protein
[8] = system: Staphylococcus aureus (29213); experiment: BacTiter-Glo bacterial ATP content viability assay; conditions: for S. aureus viability by ATP-coupled luminescence assay: FIG. 12, full length protein
[9] = system: Stenotrophomonas maltophilia (17666); experiment: BacTiter-Glo bacterial ATP content viability assay; conditions: gram −, +/− SD, n = 3, >100 = activity detected but <50% inhibition
[10] = system: Pseudomonas aeruginosa (27853); experiment: BacTiter-Glo bacterial ATP content viability assay; conditions: gram −, +/− SD, n = 3, >100 = activity detected but <50% inhibition
[11] = system: Streptococcus pneumoniae (49619); experiment: BacTiter-Glo bacterial ATP content viability assay; conditions: gram +, +/− SD, n = 3, >100 = activity detected but <50% inhibition
Escherichia coli (8739) = experiment: BacTiter-Glo bacterial ATP content viability assay; conditions: gram −, +/− SD, n = 3, >100 = activity detected but <50% inhibition
L. monocytogenes = experiment: Bacterial growth inhibition (FIG. 15); assay type: cell-based, Listeria monocytogenes; conditions: FIG. 15 Panel C
[12] = system: H. influenzae NB65027-CDS0021* (TolC efflux pump mutant); experiment: MIC against aerobic gram negative bacteria, efflux pump mutant; assay type: cell-based, Haemophilus influenzae; conditions: aerobic gram negative; H. influenzae NB65027-CDS0021*, TolC efflux pump mutant strain
[13] = system: lawn of the indicated bacteria; experiment: Agar diffusion assay; conditions: FIG. 11 Panel D; 0.5 mg/ml in sterile PBS per well
[14] = system: Streptococcus pneumoniae (ATCC 49619); experiment: Gentamycin protection assay in stable 293 cell lines; conditions: 293 cells stably expressing the protein, infected with S. pneumoniae at MOI 10:1, versus control cells
Escherichia coli (25922) = experiment: BacTiter-Glo bacterial ATP content viability assay; conditions: gram −, +/− SD, n = 3, >100 = activity detected but <50% inhibition
[15] = system: Salmonella choleraesuis (13076); experiment: BacTiter-Glo bacterial ATP content viability assay; conditions: gram −, +/− SD, n = 3, >100 = activity detected but <50% inhibition
[16] = system: Klebsiella pneumoniae (700603); experiment: BacTiter-Glo bacterial ATP content viability assay; conditions: gram −, +/− SD, n = 3, >100 = activity detected but <50% inhibition
[17] = system: E. coli NB27005* (TolC efflux pump mutant); experiment: MIC against aerobic gram negative bacteria, efflux pump mutant; assay type: cell-based, Escherichia coli; conditions: aerobic gram negative; E. coli NB27005*, TolC efflux pump mutant strain
S. maltophilia = experiment: Bacterial growth inhibition (FIG. 15); assay type: cell-based, Stenotrophomonas maltophilia; conditions: FIG. 15 Panel A
[18] = FIG. 10, 5×10^5 bacteria/100 μl, increasing concentrations, 6 hours at 37° C., relative to controls

O=C(O)c1cn(C2CC2)c2cc(N3CCNCC3)c(F)cc2c1=O [Ciprofloxacin, reference compound]
MIC [1]: 1 µg/mL (≈ 3.02 µM)
MIC [2]: 1 µg/mL (≈ 3.02 µM)
MIC [3]: 1 µg/mL (≈ 3.02 µM)
MIC [4]: 2 µg/mL (≈ 6.04 µM)
MIC [5]: 8 µg/mL (≈ 24.1 µM)

G908R: full length Nod2 protein carrying the Crohn's-associated G908R mutation
L. monocytogenes viability by ATP-coupled luminescence assay ([6]; FIG. 12, full length protein): deficient
B. subtilis viability by ATP-coupled luminescence assay (Bacillus Subtilis (6633)): deficient
E. faecals viability by ATP-coupled luminescence assay [7]: deficient
S. aureus viability by ATP-coupled luminescence assay [8]: deficient

TLR2: recombinant LRR domain of Toll-like receptor 2; human TLR2-LRR is SEQ ID NO: 6
L. monocytogenes viability by ATP-coupled luminescence assay [6, 18]: inhibit

B1: Nalp3: recombinant LRR domain of Nalp3; human Nalp3-LRR is SEQ ID NO: 7 (protein, listed as Homo sapiens)
chain: MVQCVLPSSSHAACSHGLVNSHLTSSFCRGLFSVLSTSQSLTELDLSDNSLGDPGMRVLCETLQHPGCNIRRLWLGRCGLSHECCFDISLVLSSNQKLVELDLSDNALGDFGIRLLCVGLKHLLCNLKKLWLVSCCLTSACCQDLASVLSTSHSLTRLYVGENALGDSGVAILCEKAKNPQCNLQKLGLVNSGLTSVCCSALSSVLSTNQNLTHLYLRGNTLGDKGIKLLCEGLLHPDCKLQVLELDNCNLTSHCCWDLSTLLTSSQSLRKLSLGNNDLGDLGVMMFCEVLKQQSCLLQNLGLSEMYFNYETKSALETLQEEKPELTVVFEPSW
L. monocytogenes viability by ATP-coupled luminescence assay [6, 18]: inhibit

B2: Nod2 3020insC: recombinant LRR domain of the Crohn's-associated 3020insC mutant of Nod2 (deoxycytosine inserted at nucleotide position 3020) (protein)
chain: PAAPGEAKSVHAMPGFIWLIRSLYEMQEERLARKAARGLNVGHLKLTFCSVGPTECAALAFVLQHLRRPVALQLDYNSVGDIGVEQLLPCLGVCKALYLRDNNISDRGICKLIECALHCEQLQKLALFNNKLTDGCAHSMAKLLACRQNFLALRLGNNYITAAGAQVLAEGLRGNTSLQFLGFWGNRVGDEGAQALAEALGDHQSLRWLSLVGNNIGSVGAQALALMLAKNVMLEELCLEENHLQDEGVCSLAEGLKKNSSLKILKLSNNCITYLGAEALLQAP
antibacterial activity by bacterial ATP content (IC50), [LRR domain] [9]: None detected
antibacterial activity by bacterial ATP content (IC50), [LRR domain] [10]: None detected
antibacterial activity by bacterial ATP content (IC50), [LRR domain] [11]: None detected
antibacterial activity by bacterial ATP content (IC50), [LRR domain] (Escherichia coli (8739)): None detected
L. monocytogenes viability by ATP-coupled luminescence assay ([6]; FIG. 12, full length protein): deficient
antibacterial activity by bacterial ATP content (IC50), [LRR domain] ([6]; Listeria monocytogenes (7644), gram +, +/− SD, n = 3, >100 = activity detected but <50% inhibition): 16.5 +/− 13.3 microgram/ml
L. monocytogenes growth (L. monocytogenes): inhibited
minimal inhibitory concentration (MIC) [12]: 64 microgram/ml
anti-bacterial activity by agar diffusion assay [13]: not
number of gentamycin-protected intracellular bacteria [14]: No obvious protection
antibacterial activity by bacterial ATP content (IC50), [LRR domain] (Bacillus Subtilis (6633); Bacillus Subtilis (6633), gram +, +/− SD, n = 3, >100 = activity detected but <50% inhibition): 54.0 +/− 20.2 microgram/ml
B. subtilis viability by ATP-coupled luminescence assay (Bacillus Subtilis (6633)): deficient
antibacterial activity by bacterial ATP content (IC50), [LRR domain] (Escherichia coli (25922)): None detected
antibacterial activity by bacterial ATP content (IC50), [LRR domain] [15]: None detected
antibacterial activity by bacterial ATP content (IC50), [LRR domain] [16]: None detected
minimal inhibitory concentration (MIC) [17]: >128 microgram/ml
antibacterial activity by bacterial ATP content (IC50), [LRR domain] ([7]; Enterococcus faecalis (29212), gram +, +/− SD, n = 3, >100 = activity detected but <50% inhibition): None detected
E. faecals viability by ATP-coupled luminescence assay [7]: deficient
S. aureus viability by ATP-coupled luminescence assay [8]: deficient
antibacterial activity by bacterial ATP content (IC50), [LRR domain] ([8]; Staphylococcus aureus (29213), gram +, +/− SD, n = 3, >100 = activity detected but <50% inhibition): None detected

B3: NAIP: Neuronal apoptosis inhibitor protein, an LRR protein (protein, UniProt Q13075 1-1403, looked up)
Baculoviral IAP …: MATQQKASDERISQFDHNLLPELSALLGLDAVQLAKELEEEEQKERAKMQKGYNSQMRSEAKRLKTFVTYEPYSSWIPQEMAAAGFYFTGVKSGIQCFCCSLILFGAGLTRLPIEDHKRFHPDCGFLLNKDVGNIAKYDIRVKNLKSRLRGGKMRYQEEEARLASFRNWPFYVQGISPCVLSEAGFVFTGKQDTVQCFSCGGCLGNWEEGDDPWKEHAKWFPKCEFLRSKKSSEEITQYIQSYKGFVDITGEHFVNSWVQRELPMASAYCNDSIFAYEELRLDSFKDWPRESAVGVAALAKAGLFYTGIKDIVQCFSCGGCLEKWQEGDDPLDDHTRCFPNCPFLQNMKSSAEVTPDLQSRGELCELLETTSESNLEDSIAVGPIVPEMAQGEAQWFQEAKNLNEQLRAAYTSASFRHMSLLDISSDLATDHLLGCDLSIASKHISKPVQEPLVLPEVFGNLNSVMCVEGEAGSGKTVLLKKIAFLWASGCCPLLNRFQLVFYLSLSSTRPDEGLASIICDQLLEKEGSVTEMCVRNIIQQLKNQVLFLLDDYKEICSIPQVIGKLIQKNHLSRTCLLIAVRTNRARDIRRYLETILEIKAFPFYNTVCILRKLFSHNMTRLRKFMVYFGKNQSLQKIQKTPLFVAAICAHWFQYPFDPSFDDVAVFKSYMERLSLRNKATAEILKATVSSCGELALKGFFSCCFEFNDDDLAEAGVDEDEDLTMCLMSKFTAQRLRPFYRFLSPAFQEFLAGMRLIELLDSDRQEHQDLGLYHLKQINSPMMTVSAYNNFLNYVSSLPSTKAGPKIVSHLLHLVDNKESLENISENDDYLKHQPEISLQMQLLRGLWQICPQAYFSMVSEHLLVLALKTAYQSNTVAACSPFVLQFLQGRTLTLGALNLQYFFDHPESLSLLRSIHFPIRGNKTSPRAHFSVLETCFDKSQVPTIDQDYASAFEPMNEWERNLAEKEDNVKSYMDMQRRASPDLSTGYWKLSPKQYKIPCLEVDVNDIDVVGQDMLEILMTVFSASQRIELHLNHSRGFIESIRPALELSKASVTKCSISKLELSAAEQELLLTLPSLESLEVSGTIQSQDQIFPNLDKFLCLKELSVDLEGNINVFSVIPEEFPNFHHMEKLLIQISAEYDPSKLVKLIQNSPNLHVFHLKCNFFSDFGSLMTMLVSCKKLTEIKFSDSFFQAVPFVASLPNFISLKILNLEGQQFPDEETSEKFAYILGSLSNLEELILPTGDGIYRVAKLIIQQCQQLHCLRVLSFFKTLNDDSVVEIAKVAISGGFQKLENLKLSINHKITEEGYRNFFQALDNMPNLQELDISRHFTECIKAQATTVKSLSQCVLRLPRLIRLNMLSWLLDADDIALLNVMKERHPQSKYLTILQKWILPFSPIIQK
growth of S. maltophilia (S. maltophilia): inhibited the growth

Source: patent US20100286027A1, “ANTI-BACTERIAL COMPOSITIONS” (priority 2008, published 2010)
